Experimental data published in FireProtDB.
Values joined by “and” are separate entries in the source; they are usually repeats but may differ in a detail not shown here. Identical values can stand only once.

B1: Protein GrpE, Q65H53 (parent)
chain: MAEEKQNEELNEQEELNETEAETAEAEQTAAEADAPAEETQTEMLEKQLKELQERLEEKENKLLRVQADFENYKRRARLDLEAAEKYRSQRIISDLLPALDNFERALQIDPDNEQTKSLLQGMEMVHRQILEALKNEGVEQIPSVGEQFDPNMHQAVMQVEDEAYESNAVVEELQKGYKLKDRVIRPSMVKVNQ
B2: Cocaine esterase, Q9L9D7 (parent)
chain: MVDGNYSVASNVMVPMRDGVRLAVDLYRPDADGPVPVLLVRNPYDKFDVFAWSTQSTNWLEFVRDGYAVVIQDTRGLFASEGEFVPHVDDEADAEDTLSWILEQAWCDGNVGMFGVSYLGVTQWQAAVSGVGGLKAIAPSMASADLYRAPWYGPGGALSVEALLGWSALIGTGLITSRSDARPEDAADFVQLAAILNDVAGAASVTPLAEQPLLGRLIPWVIDQVVDHPDNDESWQSISLFERLGGLATPALITAGWYDGFVGESLRTFVAVKDNADARLVVGPWSHSNLTGRNADRKFGIAATYPIQEATTMHKAFFDRHLRGETDALAGVPKVRLFVMGIDEWRDETDWPLPDTAYTPFYLGGSGAANTSTGGGTLSTSISGTESADTYLYDPADPVPSLGGTLLFHNGDNGPADQRPIHDRDDVLCYSTEVLTDPVEVTGTVSARLFVSSSAVDTDFTAKLVDVFPDGRAIALCDGIVRMRYRETLVNPTLIEAGEIYEVAIDMLATSNVFLPGHRIMVQVSSSNFPKYDRNSNTGGVIAREQLEEMCTAVNRIHRGPEHPSHIVLPIIKR
B3: Glutamate dehydrogenase, P96110 (parent)
chain: MPEKSLYEMAVEQFNRAASLMDLESDLAEVLRRPKRVLIVEFPVRMDDGHVEVFTGYRVQHNVARGPAKGGIRYHPDVTLDEVKALAFWMTWKTAVMNLPFGGGKGGVRVDPKKLSRNELERLSRRFFSEIQVIIGPYNDIPAPDVNTNADVMAWYMDTYSMNVGHTVLGIVTGKPVELGGSKGREEATGRGVKVCAGLAMDVLGIDPKKATVAVQGFGNVGQFAALLISQELGSKVVAVSDSRGGIYNPEGFDVEELIRYKKEHGTVVTYPKGERITNEELLELDVDILVPAALEGAIHAGNAERIKAKAVVEGANGPTTPEADEILSRRGILVVPDILANAGGVTVSYFEWVQDLQSFFWDLDQVRNALEKMMKGAFNDVMKVKEKYNVDMRTAAYILAIDRVAYATKKRGIYP
B4: Serine hydroxymethyltransferase, P0A825 (parent)
chain: MLKREMNIADYDAELWQAMEQEKVRQEEHIELIASENYTSPRVMQAQGSQLTNKYAEGYPGKRYYGGCEYVDIVEQLAIDRAKELFGADYANVQPHSGSQANFAVYTALLEPGDTVLGMNLAHGGHLTHGSPVNFSGKLYNIVPYGIDATGHIDYADLEKQAKEHKPKMIIGGFSAYSGVVDWAKMREIADSIGAYLFVDMAHVAGLVAAGVYPNPVPHAHVVTTTTHKTLAGPRGGLILAKGGSEELYKKLNSAVFPGGQGGPLMHVIAGKAVALKEAMEPEFKTYQQQVAKNAKAMVEVFLERGYKVVSGGTDNHLFLVDLVDKNLTGKEADAALGRANITVNKNSVPNDPKSPFVTSGIRVGTPAITRRGFKEAEAKELAGWMCDVLDSINDEAVIERIKGKVLDICARYPVYA
B5: Cyclin-dependent kinase inhibitor 2A, P42771 (parent)
chain: MEPAAGSSMEPSADWLATAAARGRVEEVRALLEAGALPNAPNSYGRRPIQVMMMGSARVAELLLLHGAEPNCADPATLTRPVHDAAREGFLDTLVVLHRAGARLDVRDAWGRLPVDLAEELGHRDVARYLRAAAGGTRGSNHARIDAAEGPSDIPD
B6: Catalase-peroxidase 2, A4QUT2 (parent)
chain: MHASLSSWLLAASLLTQPISVSGQGCPFAKRDGTVDSSLPQKRADAPETTTFGRCAVKSNQAGGGTRSHDWWPCQLRLDVLRQFQPSQNPLGGDFDYAEAFQSLDYEAVKKDIAALMTESQDWWPADFGNYGGLFVRMAWHSAGTYRAMDGRGGGGMGQQRFAPLNSWPDNQNLDKARRLIWPIKQKYGNKISWADLMLLTGNVALENMGFKTLGFGGGRADTWQSDEAVYWGAETTFVPQGNDVRYNNSVDINARADKLEKPLAATHMGLIYVNPEGPNGTPDPAASAKDIREAFGRMGMNDTETVALIAGGHAFGKTHGAVKGSNIGPAPEAADLGMQGLGWHNSVGDGNGPNQMTSGLEVIWTKTPTKWSNGYLESLINNNWTLVESPAGAHQWEAVNGTVDYPDPFDKTKFRKATMLTSDLALINDPEYLKISQRWLEHPEELADAFAKAWFKLLHRDLGPTTRYLGPEVPKESFIWQDPLPAREGDLIDDADVDKLKAAILSTDGLDVSKLASTAMACATTYRNSDKRGGCNGARIALEPQRNWVSNNPTQLSAVLDALKKVQSDFNGSNGNKKVSLADLIVLGGTAAVEKAAKDAGVDIKVPFSAGRVDATQEQTDVTQFSYLEPQADGFRNYGRGTARARTEEIMVDKASQLTLTPPELTVLVGGMRALGANYDGSDVGVFTANKGKLTPDFFVNLVDMNIAWTASGADGESWVGTDRKSRSEKYKGSRADLVFGSHAELRAIAEVYAENGNQEKFVKDFVAAWTKVMNLDRFDLKVKK
B7: Triosephosphate isomerase, glycosomal, P04789 (parent)
chain: MSKPQPIAAANWKCNGSQQSLSELIDLFNSTSINHDVQCVVASTFVHLAMTKERLSHPKFVIAAQNAIAKSGAFTGEVSLPILKDFGVNWIVLGHSERRAYYGETNEIVADKVAAAVASGFMVIACIGETLQERESGRTAVVVLTQIAAIAKKLKKADWAKVVIAYEPVWAIGTGKVATPQQAQEAHALIRSWVSSKIGADVAGELRILYGGSVNGKNARTLYQQRDVNGFLVGGASLKPEFVDIIKATQ

Variants of: B1
Conditions: Bacillus licheniformis (strain ATCC 14580 / DSM 13 / JCM 2505 / CCUG 7422 / NBRC 12200 / NCIMB 9375 / NCTC 10341 / NRRL NRS-1264 / Gibson 46…; pH 7; Thermal; CD; Hepes 10 mM; reversible: Yes; whole UniProt chain shown

Variant L52P has a Tm of 40.1 °C.

For L52P, the “change of melting temperature, mutant - wild type (higher = more stable)” value (“change of melting temperature, mutant” below) was -11.9 °C.

In the case of L52P, the “unfolding enthalpy (van 't Hoff)” value is reported as 37.5 kcal/mol.

Variants of: B2
Conditions: Rhodococcus sp. (strain MB1 Bresler); pH 8; Thermal; Fluorescence; Tris 50 mM; structure 1JU3; whole UniProt chain shown

Going from T172R G173Q to G173Q, the Tm falls from 41.2 °C to 37.7 °C.

L169K gave a Tm of 41.1 °C.

Going from T172R G173Q to G173Q, the “change of melting temperature, mutant” value falls from 6.41 °C to 2.97 °C.

For L169K, the “change of melting temperature, mutant” value was 6.3 °C.

Variants of: B3
Conditions: Thermotoga maritima (strain ATCC 43589 / DSM 3109 / JCM 10099 / NBRC 100826 / MSB8); pH 7.4; Thermal; DSC; Sodium phosphate 20 mM; reversible: no; structure 1B26; whole UniProt chain shown

Going from S129R to T159E, the Tm falls from 87 °C to 83.1 °C.

Compared with N118R, S129R T159E N118R S161E is lower in Tm: 88.7 °C for the first, 88.3 °C for the second.

First: S129R T159E N118R
Second: S129R T159E S161E
The Tm of the first is higher: 89.6 °C for the first, 88 °C for the second.

Variants of: B4
Conditions: Escherichia coli (strain K12); pH 7.5; 30 °C; Urea; Fluorescence; Tris-HCl 20 mM; transition: 3; structure 1DFO; whole UniProt chain shown

For W183F W385F, the unfolding free energy was 4.2 kcal/mol and 5.5 kcal/mol.

Same assay, conditions: Escherichia coli (strain K12); pH 7.5; 30 °C; Urea; Fluorescence; Tris-HCl 20 mM; structure 1DFO; whole UniProt chain shown

Going from W16Y to W385F, the unfolding free energy rises from 3.7 kcal/mol to 4 kcal/mol.

Work on W16F W183F yielded an unfolding free energy of 5.9 kcal/mol.

Variants of: B5
Conditions: Homo sapiens; pH 7.5; 25 °C; Urea; CD; Sodium phosphate 15 mM; NaCl 100 mM; reversible: yes; structure 1A5E; whole UniProt chain shown

First: P81L
Second: D74N
The denaturant m value of the first is lower: 1.1 kcal/mol/M for the first, 1.2 kcal/mol/M for the second.

D84N showed a denaturant m value of 2 kcal/mol/M.

Going from P81L to D74N, the “denaturant midpoint (higher = more stable)” value falls from 3.4 M to 1.4 M (2.4-fold).

With D84N the “denaturant midpoint (higher = more stable)” value was 1.8 M.

Variants of: B6
Conditions: Pyricularia oryzae (strain 70-15 / ATCC MYA-4617 / FGSC 8958); pH 7; Thermal; DSC; Phosphate buffer 5 mM; transition: 2; structure 5JHZ; whole UniProt chain shown

Going from W140F to Y273F, the Tm falls from 44.8 °C to 43.6 °C.

In the case of M299A, the Tm is reported as 48.2 °C.

Variants of: B7
Conditions: Trypanosoma brucei brucei; pH 7; Thermal; CD; 3-(N-morpholino)propanesulfonic acid/dithiothreitol 20 mM/0.02 mM; EDTA 0.02 mM; structure 3TIM; whole UniProt chain shown

Going from D227N to D227A, the Tm falls from 49.3 °C to 48.7 °C.

Same assay, conditions: Trypanosoma brucei brucei; pH 7.4; Thermal; CD; MOPS 20 mM; EDTA 1 mM; reversible: no; structure 1TPE; whole UniProt chain shown

With C14F the Tm was 46.5 °C.

With C14F the “change of melting temperature, mutant” value was -4.9 °C.
